Assay results published in patent publication US9694061B2, “Fully human antibodies to high molecular weight-melanoma associated antigen and uses thereof” (University of Pittsburgh—Of the Commonwealth System of …, priority 2008, dated 2017).

Assays:
HMW-MAA [1] = biological target: T1, HMW-MAA (Homo sapiens, UniProt Q6UVK1); test: Flow cytometry of M14/HMW-MAA transfectants and parental M14 cells stained with scFv; type: binding; parameters: from tissue; host or cells: human nevi, primary and metastatic melanoma lesions (frozen sections)
T1 sequence (Q6UVK1 30-2322): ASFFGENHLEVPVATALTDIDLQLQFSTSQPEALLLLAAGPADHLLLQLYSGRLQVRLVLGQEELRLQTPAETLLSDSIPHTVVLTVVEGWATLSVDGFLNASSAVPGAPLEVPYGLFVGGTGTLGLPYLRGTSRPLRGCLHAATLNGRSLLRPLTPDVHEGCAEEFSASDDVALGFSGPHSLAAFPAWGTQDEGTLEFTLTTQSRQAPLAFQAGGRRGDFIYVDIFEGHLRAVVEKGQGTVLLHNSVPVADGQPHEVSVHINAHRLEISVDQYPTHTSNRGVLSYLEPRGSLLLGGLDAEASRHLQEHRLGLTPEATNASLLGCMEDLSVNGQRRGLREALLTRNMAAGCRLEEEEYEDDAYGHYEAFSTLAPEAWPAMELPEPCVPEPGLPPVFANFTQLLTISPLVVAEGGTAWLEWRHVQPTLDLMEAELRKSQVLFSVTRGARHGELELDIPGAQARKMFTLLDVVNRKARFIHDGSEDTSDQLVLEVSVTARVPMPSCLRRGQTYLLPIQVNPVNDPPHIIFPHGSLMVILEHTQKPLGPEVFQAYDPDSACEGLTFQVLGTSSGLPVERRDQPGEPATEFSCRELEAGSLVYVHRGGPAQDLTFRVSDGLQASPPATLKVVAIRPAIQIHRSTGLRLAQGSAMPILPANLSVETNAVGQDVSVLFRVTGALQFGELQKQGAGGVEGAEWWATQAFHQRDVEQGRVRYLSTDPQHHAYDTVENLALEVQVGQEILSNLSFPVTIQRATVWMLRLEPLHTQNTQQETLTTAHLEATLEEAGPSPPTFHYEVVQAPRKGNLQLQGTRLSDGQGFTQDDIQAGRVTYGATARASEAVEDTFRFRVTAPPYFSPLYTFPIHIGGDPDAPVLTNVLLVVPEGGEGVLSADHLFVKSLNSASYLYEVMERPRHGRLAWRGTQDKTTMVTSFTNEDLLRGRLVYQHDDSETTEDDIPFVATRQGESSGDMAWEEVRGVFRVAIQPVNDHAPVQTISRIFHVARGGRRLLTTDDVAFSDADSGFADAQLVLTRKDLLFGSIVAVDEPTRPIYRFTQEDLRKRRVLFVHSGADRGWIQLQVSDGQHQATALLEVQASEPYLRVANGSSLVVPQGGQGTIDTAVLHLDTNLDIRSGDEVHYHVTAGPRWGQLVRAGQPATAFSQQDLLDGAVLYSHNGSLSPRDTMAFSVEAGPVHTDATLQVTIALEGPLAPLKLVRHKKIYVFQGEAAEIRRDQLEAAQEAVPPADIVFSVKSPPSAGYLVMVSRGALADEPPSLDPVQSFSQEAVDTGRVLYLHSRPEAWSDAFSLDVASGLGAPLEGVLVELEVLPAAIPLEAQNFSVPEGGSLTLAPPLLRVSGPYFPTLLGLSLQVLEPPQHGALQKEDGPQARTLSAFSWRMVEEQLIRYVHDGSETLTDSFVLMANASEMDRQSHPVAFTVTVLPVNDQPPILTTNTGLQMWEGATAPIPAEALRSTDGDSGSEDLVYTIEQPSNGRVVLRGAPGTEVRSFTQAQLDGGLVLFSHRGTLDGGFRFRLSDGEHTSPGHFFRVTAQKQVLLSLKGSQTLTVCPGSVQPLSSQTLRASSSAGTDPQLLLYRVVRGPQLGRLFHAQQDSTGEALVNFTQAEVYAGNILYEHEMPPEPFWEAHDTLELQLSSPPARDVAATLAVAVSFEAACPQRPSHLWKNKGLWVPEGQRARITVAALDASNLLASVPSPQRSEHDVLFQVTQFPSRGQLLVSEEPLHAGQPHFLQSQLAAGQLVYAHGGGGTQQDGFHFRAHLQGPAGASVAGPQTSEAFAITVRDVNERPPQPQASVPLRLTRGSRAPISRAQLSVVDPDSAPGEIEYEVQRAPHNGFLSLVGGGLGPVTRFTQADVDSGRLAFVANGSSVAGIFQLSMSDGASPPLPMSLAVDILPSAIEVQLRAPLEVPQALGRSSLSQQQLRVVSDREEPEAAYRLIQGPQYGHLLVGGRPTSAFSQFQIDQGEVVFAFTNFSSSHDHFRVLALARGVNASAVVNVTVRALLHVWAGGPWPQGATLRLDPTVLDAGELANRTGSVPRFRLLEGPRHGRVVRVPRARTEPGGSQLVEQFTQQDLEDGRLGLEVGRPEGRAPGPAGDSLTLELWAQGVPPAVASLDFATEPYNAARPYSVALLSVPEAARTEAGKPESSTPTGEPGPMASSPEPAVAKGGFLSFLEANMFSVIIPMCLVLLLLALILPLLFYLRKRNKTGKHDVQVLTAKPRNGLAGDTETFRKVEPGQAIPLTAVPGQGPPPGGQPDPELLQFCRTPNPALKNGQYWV
Method: FIG. 2. Flow cytometry analysis of HMW-MAA^+ M14#5/HMW-MAA melanoma cells stained with scFv C21. M14#5/HMW-MAA transfectants and parental HMW-MAA^− M14#5 cells were incubated on ice with PP scFv C21 and mAb 9E10 (empty histogram) and control PP scFv 119 and mAb 9E10 (grey histogram) (top panel), with HMW-MAA-specific mouse mAb 763.74 (0.5 μg) (empty histogram) and control mAb MK2-23 (grey histogram) (middle panel) and with HLA class I antigen-specific mAb TP25.99 (empty histogram) and control mAb MK2-23 (grey histogram) (bottom panel). Binding of antibodies was detected using RPE-labeled F(ab′)2 fragments of goat anti-mouse Ig antibodies. Cells were analyzed with a FACScan™ flow cytometer. Results are expressed as fluorescence intensity.
Flow cytometry analysis of melanoma cells stained with scFv antibodies or antibodies in immune sera was performed as described (Wang et al., J Immunol Methods 294:23-35, 2004, herein incorporated by reference). […] Following two washes, cells were fixed in 2% formaldehyde and analyzed with a FACScan™ flow cytometer (BD Biosciences, San Jose, Calif.). A total of 10,000 cells were counted using a forward and side scatter gate to eliminate aggregates and debris for each sample. Results are expressed as relative fluorescence intensity.

HMW-MAA [2] = biological target: T1, HMW-MAA; test: Indirect immunoperoxidase staining of melanocytic lesions; type: binding; parameters: from tissue; host or cells: human nevi, primary and metastatic melanoma lesions (frozen sections)
Description: FIGS. 6A-6F. Immunohistochemical staining by scFv C21 of frozen surgically removed human nevi and melanoma lesions. scFv C21 stains a frozen nevus (FIG. 6A), a frozen primary melanoma lesion (FIG. 6B) and a frozen metastatic melanoma lesion (FIG. 6C). The specificity of the staining was monitored by staining the nevus (FIG. 6D), the primary (FIG. 6E) and the metastatic (FIG. 6F) melanoma lesions with the unrelated scFv #119.
The human melanoma cell lines Colo38, FO-1 and Melur and the human B lymphoid cell line LG2 were maintained in RPMI 1640 medium (Tissue Culture Media Facility, Roswell Park Cancer Institute (RPCI), Buffalo, N.Y.) supplemented with 10% serum plus supplement (BioWhittaker, Walkersville, Md.) and 2 mM L-glutamine (BioWhittaker). The human melanoma cell lines M14 and SK-MEL-28, the human fibroblasts FF2376, the human breast carcinoma cell line T47D, the human bladder carcinoma cell line T24, the human prostate carcinoma cell line PC3, the human B lymphoid cell lines JY and LKT13, and the rat neural cell line B49 were maintained in RPMI 1640 medium supplemented with 10% fetal bovine serum (FBS) (BioWhittaker) and 2 mM L-glutamine. The M14/HMW-MAA cells which express HMW-MAA following transfection of M14 cells with a plasmid DNA of pcDNA 3.1™ (+)/full length of HMW-MAA DNA construct (Yang et al., J Cell Biol 165:881-891, 2004) were grown in RPMI 1640 medium supplemented with 10% FBS, 2 mM L-glutamine and 0.4 mg/ml G418 (Promega, Madison, Wis.). Cells were cultured at 37° C. in a 5% CO2 atmosphere. Cell lysates were prepared as described (Desai et al., Cancer Res 58:2417-2425, 1998, herein incorporated by reference). Lesions of melanocytic origin were obtained from patients who had undergone surgery in the Department of Dermatology at Kumamoto University School of Medicine (Kumamoto, Japan). The diagnosis of melanoma lesions was based on histopathologic characteristics. The frozen and formalin-fixed tissue sections were prepared as described previously (Desai et al., Cancer Res 58:2417-2425, 1998, herein incorporated by reference).
The indirect immunoperoxidase staining of frozen and formalin-fixed tissue sections was performed as described previously (Desai et al., Cancer Res 58:2417-2425, 1998, herein incorporated by reference).

B1: scFv C21: HMW-MAA-specific fully human scFv from semi-synthetic phage display library; VH SEQ ID NO: 5, VL SEQ ID NO: 6 (antibody, listed as Homo sapiens, V domains shown)
VH: QVQLVQSGAEVKKPGSSVKVSCKASGGTFSSYAISWVRQAPGQGLEWMGGIIPIFGTANYAQKFQGRVTITADESTSTAYMELSSLRSDDTAVYYCARALDPITFDSWGQGTLVTVSR
VL: SELTQDPAVSVALGQTVRITCQGDSLRSYYASWYQQKPGQAPVLVIYGKNNRPSGIPDRFSGSSSGNTASLTITGAQAEDEADYYCNSRDSSGNHVVFGGGTKLTVLGRS
modifications: scFv linker
Flow cytometry staining of HMW-MAA transfected M14 cells (HMW-MAA [1]; M14 cells stably transfected with full length HMW-MAA): stained M14 cells which express HMW-MAA
Flow cytometry staining of parental M14 cells (HMW-MAA [1]; parental M14 cells, do not express HMW-MAA): did not stain the parental M14 cells
Staining of formalin fixed paraffin embedded melanocytic lesions (HMW-MAA [2]; formalin fixed paraffin embedded): did not stain
Staining of frozen melanocytic lesions in the immunoperoxidase reaction (HMW-MAA [2]; frozen sections): stained frozen melanocytic lesions
Metastatic lesions stained with a heterogeneous pattern (HMW-MAA [2]; metastatic lesions): 3 lesions
Metastatic lesions stained with a homogeneous pattern (HMW-MAA [2]; metastatic lesions): 3 lesions
Metastatic lesions with cytoplasmic staining (HMW-MAA [2]; metastatic lesions): 3 lesions
Metastatic lesions with membranous and cytoplasmic staining (HMW-MAA [2]; metastatic lesions): 3 lesions
Primary lesions stained with a heterogeneous pattern (HMW-MAA [2]; out of 15 primary lesions): 2 lesions
Primary lesions stained with a homogeneous pattern (HMW-MAA [2]; out of 15 primary lesions): 9 lesions
Pigmented nevi stained homogeneously (membranous and cytoplasmic pattern) (HMW-MAA [2]; pigmented nevi): 4
Primary lesions with cytoplasmic staining (HMW-MAA [2]; primary lesions): 6 lesions
Primary lesions with membranous and cytoplasmic staining (HMW-MAA [2]; primary lesions): 4 lesions
Primary lesions with membranous staining (HMW-MAA [2]; primary lesions): 1 lesions
